# In paper PMC6511263 (Nature, 2018):
# T1: SETD3 (SET domain protein 3) (human, UniProt Q86TU7)
# T1 sequence: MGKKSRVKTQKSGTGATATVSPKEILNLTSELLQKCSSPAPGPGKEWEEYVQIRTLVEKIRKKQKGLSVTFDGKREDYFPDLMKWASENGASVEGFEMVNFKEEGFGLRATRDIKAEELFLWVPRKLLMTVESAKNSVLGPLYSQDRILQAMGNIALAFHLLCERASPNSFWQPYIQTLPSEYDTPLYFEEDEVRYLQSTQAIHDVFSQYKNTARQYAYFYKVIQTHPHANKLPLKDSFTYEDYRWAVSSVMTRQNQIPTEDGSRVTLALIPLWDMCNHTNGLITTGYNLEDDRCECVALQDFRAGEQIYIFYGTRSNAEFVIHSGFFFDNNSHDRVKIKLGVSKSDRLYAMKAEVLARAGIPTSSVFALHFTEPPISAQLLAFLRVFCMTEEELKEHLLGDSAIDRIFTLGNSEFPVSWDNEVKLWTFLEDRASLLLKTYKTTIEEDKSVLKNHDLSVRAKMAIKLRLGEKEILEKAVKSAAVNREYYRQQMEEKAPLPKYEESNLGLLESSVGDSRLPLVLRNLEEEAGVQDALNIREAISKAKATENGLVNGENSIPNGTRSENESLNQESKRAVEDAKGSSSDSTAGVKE
# Target: T1, SETD3 (SET domain protein 3)
# Assay: crystal structure
binder,measurement,value
TLKYPIEHGIVTNWD [Human beta-actin peptide (residues 66-80)],binding result,binds
